Test results taken from publication PMC3924328, “Structure of the S100A4/myosin-IIA complex” (BMC Structural Biology, 2013).

Legend:
S100A4 [1] = target: T1, S100A4 (Homo sapiens, UniProt P26447); assay: Sedimentation velocity of MIIA^1851-1960, S100A4 and S100A4/MIIA^1851-1960 mixtures; assay type: physicochemical; details: sedimentation velocity, protein alone
T1 construct: heteronuclear single quantum coherence spectrum (HSQC) of full-length Ca^2+-S100A4 at 600 MHz; made in house; host or cells: E. coli, M9 medium with 15N NH4Cl (BL21(DE3)* is named for the unlabelled protein)
T1 sequence (P26447 2-101 limits assumed, one chain of several): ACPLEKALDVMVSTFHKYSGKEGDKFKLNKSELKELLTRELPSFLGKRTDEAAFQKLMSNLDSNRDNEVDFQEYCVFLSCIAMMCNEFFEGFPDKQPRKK
Protocol: (§1) Sedimentation equilibrium and velocity experiments were conducted at 22°C in a Beckman XL-I analytical ultracentrifuge using a Ti60 rotor and Raleigh interference optics. Wild-type S100A4 and MIIA^1851-1960 were dialyzed into 20 mM Tris pH 7.5, 150 mM KCl, 0.5 mM CaCl2, 1 mM TCEP and 0.02% NaN3 and clarified by ultracentrifugation at 80,000 rpm for 10 minutes at 4°C in TLA 120.2 rotor. Sedimentation equilibrium analysis of MIIA^1851-1960 and S100A4 was conducted in six channel centerpieces by sequentially equilibrating the protein at three concentrations for 24 hr at 12,000, 20,000 and 28,000 rpm and globally analyzing the data using HeteroAnalysis v1.1.44 (James L. Cole and Jeffrey W. Lary). The sedimentation velocity experiments were conducted at 53,000 rpm using double sector centerpieces and analyzed using DCDT + v2.4.0 [57, 58]. The best-fit parameters and their 95% joint confidence intervals are reported. The calculated masses of the wild-type S100A4 and MIIA^1851-1960 monomers are 11,597.3 and 12,397.5 Da, respectively. Values of ν-bar = 0.715 for S100A4/MIIA^851-1960 and 0.735 for S100A4, ρ = 1.0059, μ = 1.00586 cp were calculated using Sednterp v1.06 (Hayes, B., T. Laue & J. Philo, Sedimentation Interpretation Program. 2003, University of New Hampshire) from the amino acid and buffer compositions, respectively.

S100A4 [2] = target: T1, S100A4; assay: Sedimentation equilibrium of MIIA^1851-1960 and S100A4/MIIA^1851-1960 mixtures; assay type: physicochemical; details: 22°C
Protocol: as §1

[3] = as above; assay type: physicochemical, human; details: 22°C, MIIA^1851-1960 alone, 20 mM Tris pH 7.5, 150 mM KCl, 0.5 mM CaCl2, 1 mM TCEP, 0.02% NaN3, predicted 24,795
Protocol: as §1

[4] = Circular dichroism: secondary structure and thermal stability; assay type: physicochemical
Protocol: MIIA^1851-1960 was dialyzed into 20 mM Tris pH 7.5, 150 mM KCl, 0.5 mM CaCl2, 0.02% NaN3 and clarified by ultracentrifugation at 80,000 rpm for 10 minutes at 4°C in TLA 120.2 rotor. MIIA^1851-1960 (40 μM monomer concentration) was transferred to a 1 mm path-length quartz cuvette and scanned in Jasco J-815 Spectrometer equipped with a PFD-425 temperature controller. Spectra from 190 to 260 nm were obtained at 22°C using a scan speed of 100 nm/minute, a 1 nm bandwidth, and a sensitivity of 100 mdeg. Thermal melt curves were obtained by monitoring ellipticity at 222 nm while the sample temperature was increased from 2 – 85°C in 2°C intervals at a rate of 60°C/h, using a 1 nm bandwidth. The data were fit to a sigmoidal dose–response with a variable slope using Graphpad Prism v5.

[5] = ref [45]; cited from earlier work
Source text: An interesting feature of the S100A4/myosin-IIA complex is that myosin-IIA residues contributing to the coiled-coil interface also mediate S100A4 binding.

Molecule	Peak 1 S20,w (S100A4 [1]; 22°C, 53,000 rpm, 20 mM Tris pH 7.5, 150 mM KCl, 0.5 mM CaCl2, 1 mM TCEP, 0.02% NaN3)	Peak 1 MW (S100A4 [1]; 22°C) [kDa]	S value (S100A4 [1]; 22°C) [S]	[Peak 1] (green), relative amount of plateau concentrations (S100A4 [1]; 22°C)	Oligomeric state (S100A4 [2])	Experimental MW (weight-average molecular mass) [3]	Reversibility of thermal unfolding ([4]; CD, 222 nm, data not shown)	Transition midpoint (Tm) for unfolding ([4]; CD, ellipticity at 222 nm, 40 μM monomer, 20 mM Tris pH 7.5, 150 mM KCl, 0.5 mM CaCl2, 0.02% NaN3, 2 – 85°C at 60°C/h, average of two independent experiments) [°C]	Secondary structure by CD ([4]; far-UV, 190 to 260 nm, 22°C, 40 μM MIIA^1851-1960 monomer, pH 7.5)	Tm [5] [°C]
MIIA^1851-1960: C-terminal fragment of the human myosin-IIA heavy chain that corresponds to residues 1851–1960 (protein) VDDERRNAEQYKDQADKASTRLKQLKRQLEEAEEEAQRANASRRKLQRELEDATETADAMNREVSSLKNKLRRGDLPFVVPRRMARKGAGDGSDEEVDGKADGAEAKPAE	1.91 ± 0.01	18.5 ± 0.2	1.91	2.09 ± 0.02	we did not detect any monomer	25,651 ± 308 Da	reversible	27	primarily α-helical	
myosin-IIA rod (residues 1102–1960): myosin-IIA rod, residues 1102–1960 (protein, UniProt P35579 1102-1960, looked up, fragment) ALKKIRELESQISELQEDLESERASRNKAEKQKRDLGEELEALKTELEDTLDSTAAQQELRSKREQEVNILKKTLEEEAKTHEAQIQEMRQKHSQAVEELAEQLEQTKRVKANLEKAKQTLENERGELANEVKVLLQGKGDSEHKRKKVEAQLQELQVKFNEGERVRTELADKVTKLQVELDNVTGLLSQSDSKSSKLTKDFSALESQLQDTQELLQEENRQKLSLSTKLKQVEDEKNSFREQLEEEEEAKHNLEKQIATLHAQVADMKKKMEDSVGCLETAEEVKRKLQKDLEGLSQRHEEKVAAYDKLEKTKTRLQQELDDLLVDLDHQRQSACNLEKKQKKFDQLLAEEKTISAKYAEERDRAEAEAREKETKALSLARALEEAMEQKAELERLNKQFRTEMEDLMSSKDDVGKSVHELEKSKRALEQQVEEMKTQLEELEDELQATEDAKLRLEVNLQAMKAQFERDLQGRDEQSEEKKKQLVRQVREMEAELEDERKQRSMAVAARKKLEMDLKDLEAHIDSANKNRDEAIKQLRKLQAQMKDCMRELDDTRASREEILAQAKENEKKLKSMEAEMIQLQEELAAAERAKRQAQQERDELADEIANSSGKGALALEEKRRLEARIAQLEEELEEEQGNTELINDRLKKANLQIDQINTDLNLERSHAQKNENARQQLERQNKELKVKLQEMEGTVKSKYKASITALEAKIAQLEEQLDNETKERQAACKQVRRTEKKLKDVLLQVDDERRNAEQYKDQADKASTRLKQLKRQLEEAEEEAQRANASRRKLQRELEDATETADAMNREVSSLKNKLRRGDLPFVVPRRMARKGAGDGSDEEVDGKADGAEAKPAE										45
